Results on three proteins are retold here after paper PMC6336799, “Novel non-phosphorylative pathway of pentose metabolism from bacteria” (Scientific Reports, 2019).

Type in all cases: biochemical, Herbaspirillum huttiense
Substrate in series [1]: O=C(O)[C@@H](O)[C@H](O)[C@H](O)[C@H](O)CO
The series can be described thus: purified protein. Particulars: 50 mM HEPES-NaOH pH 7.2, 1.5 mM NAD+ for coupling enzyme.

Substrate in series [2]: O=C(O)[C@@H](O)[C@H](O)[C@H](O)CO
The series can be described thus: purified protein. Particulars: 50 mM HEPES-NaOH pH 7.2, 1.5 mM NAD+ for coupling enzyme.

Substrate in series [3]: O=C(O)C(=O)C[C@H](O)CO
Put plainly: spectrophotometric NADH formation. Particulars: NAD+ as coenzyme, 50 mM Tris-HCl pH 9.0.

Substrate in series [4]: C[C@H](O)[C@@H](O)CC(=O)C(=O)O
The series can be described thus: spectrophotometric NADH formation. Particulars: NAD+ as coenzyme, 50 mM Tris-HCl pH 9.0.

Substrate in series [5]: O=C(O)C(=O)C[C@H](O)CO
Put plainly: coupled spectrophotometric assay (alpha-KGSA dehydrogenase). As to conditions: 50 mM HEPES-NaOH pH 7.2, 1.5 mM NAD+ for coupling enzyme, 1 mM MgCl2 if necessary.

Substrate in series [6]: O=C(O)C(=O)C[C@@H](O)CO
Described as above. As to conditions: 50 mM HEPES-NaOH pH 7.2, 1.5 mM NAD+ for coupling enzyme, 1 mM MgCl2 if necessary.

B1: C785_RS13685 (D-arabinonate dehydratase) (Herbaspirillum huttiense subsp. lycopersici) (protein)
chain: MKANSPIIRLNPVDDVVIARQQLISGTVLQDEGGLKVQGLIPAGHKMATRAISAGEPVKRYGQIIGTASQDIAPGQHVHTHNLAMAEFSREHHFGADVKPVDFVAEPATFMGIVRPDGRVATRNYIGVLTSVNCSATAARAIADYFRRDIHPEVLADYPNIDGVVALTHGQGCATDSQGEPLQILRRTLAGYATHPNFAAVLVVGLGCETNQISGLMESHNLKEGEYFHTFTIQGTGGTAKTVALGIEKIKKMLPKANDIKREPVSAKHLTLGLQCGGSDGYSGITANPALGAAVDLLVRHGGTAILSETPEIYGAEHLLTRRAVSPEVGEKLLARIAWWEEYCAKNDAEMNNNPSAGNKAGGLTTILEKSLGAVAKGGTTNLVDVYKYAETVTARGFVFMDTPGYDPISATGQVAGGANMICFTTGRGSAYGCAPAPSLKLATNTALWQRQEEDMDINCGEIADSNVTPQEVGERFFQMILDTASGKKTKSELHGYGQDEFVPWHIGVYT
notes: full length, N-terminal (His)6-tag (pQE-80L), expressed in E. coli DH5alpha, Ni-NTA; iron protein stored with Fe2+ and DTT
As for B1, in the series “purified protein [1]”, the Km stood at 5910 ± 90 µM and the kcat was 0.0393 ± 0.0005 s⁻¹. In addition, in “purified protein [2]”, the Km was 202 ± 3 µM and the kcat is 9.03 ± 0.067 s⁻¹.

B2: C785_RS13675 (D-KDP/L-KDF 4-dehydrogenase) (Herbaspirillum huttiense subsp. putei IAM 15032) (protein)
chain: MSASTGRLAGKTVLITAAAQGIGRASTELFAREGARVIATDISKTHLEELASIAGVETHLLDVTDDDAIKALVAKVGTVDVLFNCAGYVAAGNILECDDKAWDFSFNLNAKAMFHTIRAVLPGMLAKKAGSIVNIASAASSVKGVANRFAYGASKAAVVGLTKSVAADFVSQGIRCNAICPGTIESPSLNQRISTQAKETGKSEDEVRAAFVARQPMGRIGKAEEVAALALYLASDESNFTTGSIHMIDGGWSN
notes: full length, N-terminal (His)6-tag (pQE-80L), expressed in E. coli DH5alpha, Ni-NTA
For the protein B2, the figures for the Km in series [3] and in series [4] were 1120 ± 210 µM and 169 ± 3 µM, respectively. The turnover number (kcat) amounted to 27.17 ± 3.67 s⁻¹ in series [3] and 32.17 ± 0.483 s⁻¹ in series [4].

B3: C785_RS13710 (KDP dehydratase) (Herbaspirillum huttiense subsp. lycopersici) (protein)
chain: MRLIQYRDLHGQRRVGIVNGASIQVLGEVDTMRELGLLAIERHTGLERLAQLLNTDRSEDYAAILAEGRILAPLDHPDPAHCRVSGAGTTHLGSATTRDKMHRRIEGDELDKTDTQLMIEWGIAGGRPAPGTVGVQPEWFYKGDGHCIVAPGQPLPRPDFALDGGEEPEIVGLYLIDDAGCPRRLGFAIGNEFSDHVMERRNYLYQGHSKLRHCAFGPELLVGLPPAHLVGMTRIRRRGRVIWEQEFLTGPDNMCHSIENLEYHTFKYAHLLHAGDVHAHFMGAANLSFAYSVRTEDGDSIEISIPDFGAPLVNGIQHVQSNLRPGGVRQL
notes: full length, N-terminal (His)6-tag, expressed in Pseudomonas putida KT2442-oxyR1 (pUCP/C785_RS13710), Ni-NTA
Take B3: in series [5], the Km was 1910 ± 200 µM and the kcat stood at 0.18 ± 0.005 s⁻¹. In addition, in series [6], the Km worked out at 533 ± 160 µM and the kcat was 0.202 ± 0.035 s⁻¹.

The Km is the concentration of substrate that gives half-maximal velocity. As a reminder, the kcat is the number of substrate molecules converted per active site and unit of time at saturation.
